Experimental data: patent publication US20140087995A1 (published 2014)
Numbered stars: 1 amine (or outer) side, 2 acyl side, 3 side chain; on linkers, the order of the positions; unused ones are H or OH. Bridge positions count the residues as written; N and C are the ends. Side chains are listed from the residue outwards. Ends that are not written are not given here. * marks the point of attachment. C20 diacid = O=C(O)CCCCCCCCCCCCCCCCCCC(=O)*; γGlu = O=C(O)[C@H](CCC(=O)[*:2])N[*:1]

B1: N^ε1-[(4S)-4-carboxy-4-(19-carboxynonadecanoylamino)butanoyl]-[Asp14,Arg17,Pro21,Pro27,Pro34,Arg35]-h-amylin (peptide)
peptide: K([γGlu-C20 diacid])CNTATCATQRLADFLRHSSPNFGAIPSSTNVGPRTY-NH2
modifications: disulfide 2-7; N-terminus assumed
SMILES: CC[C@H](C)[C@H](NC(=O)[C@H](C)NC(=O)CNC(=O)[C@H](Cc1ccccc1)NC(=O)[C@H](CC(N)=O)NC(=O)[C@@H]1CCCN1C(=O)[C@H](CO)NC(=O)[C@H](CO)NC(=O)[C@H](Cc1c[nH]cn1)NC(=O)[C@H](CCCNC(=N)N)NC(=O)[C@H](CC(C)C)NC(=O)[C@H](Cc1ccccc1)NC(=O)[C@H](CC(=O)O)NC(=O)[C@H](C)NC(=O)[C@H](CC(C)C)NC(=O)[C@H](CCCNC(=N)N)NC(=O)[C@H](CCC(N)=O)NC(=O)[C@@H](NC(=O)[C@H](C)NC(=O)[C@@H]1CSSC[C@H](NC(=O)[C@@H](N)CCCCNC(=O)CC[C@H](NC(=O)CCCCCCCCCCCCCCCCCCC(=O)O)C(=O)O)C(=O)N[C@@H](CC(N)=O)C(=O)N[C@@H]([C@@H](C)O)C(=O)N[C@@H](C)C(=O)N[C@@H]([C@@H](C)O)C(=O)N1)[C@@H](C)O)C(=O)N1CCC[C@H]1C(=O)N[C@@H](CO)C(=O)N[C@@H](CO)C(=O)N[C@H](C(=O)N[C@@H](CC(N)=O)C(=O)N[C@H](C(=O)NCC(=O)N1CCC[C@H]1C(=O)N[C@@H](CCCNC(=N)N)C(=O)N[C@H](C(=O)N[C@@H](Cc1ccc(O)cc1)C(N)=O)[C@@H](C)O)C(C)C)[C@@H](C)O
notes: not restated for each compound
B2: N^ε1-[(4S)-4-carboxy-4-(19-carboxynonadecanoylamino)butanoyl]-[His14,Arg17,Pro21,Pro27,Pro31,Pro34]-h-amylin (peptide)
peptide: K([γGlu-C20 diacid])CNTATCATQRLAHFLRHSSPNFGAIPSSTPVGPNTY-NH2
modifications: disulfide 2-7; N-terminus assumed
SMILES: CC[C@H](C)[C@H](NC(=O)[C@H](C)NC(=O)CNC(=O)[C@H](Cc1ccccc1)NC(=O)[C@H](CC(N)=O)NC(=O)[C@@H]1CCCN1C(=O)[C@H](CO)NC(=O)[C@H](CO)NC(=O)[C@H](Cc1c[nH]cn1)NC(=O)[C@H](CCCNC(=N)N)NC(=O)[C@H](CC(C)C)NC(=O)[C@H](Cc1ccccc1)NC(=O)[C@H](Cc1c[nH]cn1)NC(=O)[C@H](C)NC(=O)[C@H](CC(C)C)NC(=O)[C@H](CCCNC(=N)N)NC(=O)[C@H](CCC(N)=O)NC(=O)[C@@H](NC(=O)[C@H](C)NC(=O)[C@@H]1CSSC[C@H](NC(=O)[C@@H](N)CCCCNC(=O)CC[C@H](NC(=O)CCCCCCCCCCCCCCCCCCC(=O)O)C(=O)O)C(=O)N[C@@H](CC(N)=O)C(=O)N[C@@H]([C@@H](C)O)C(=O)N[C@@H](C)C(=O)N[C@@H]([C@@H](C)O)C(=O)N1)[C@@H](C)O)C(=O)N1CCC[C@H]1C(=O)N[C@@H](CO)C(=O)N[C@@H](CO)C(=O)N[C@H](C(=O)N1CCC[C@H]1C(=O)N[C@H](C(=O)NCC(=O)N1CCC[C@H]1C(=O)N[C@@H](CC(N)=O)C(=O)N[C@H](C(=O)N[C@@H](Cc1ccc(O)cc1)C(N)=O)[C@@H](C)O)C(C)C)[C@@H](C)O
notes: as for B1
B3: N^ε1-[(4S)-4-carboxy-4-(19-carboxynonadecanoylamino)butanoyl]-[Glu14,Arg17,Pro21,Pro27,His35]-h-amylin (peptide)
peptide: K([γGlu-C20 diacid])CNTATCATQRLAEFLRHSSPNFGAIPSSTNVGSHTY-NH2
modifications: disulfide 2-7; N-terminus assumed
SMILES: CC[C@H](C)[C@H](NC(=O)[C@H](C)NC(=O)CNC(=O)[C@H](Cc1ccccc1)NC(=O)[C@H](CC(N)=O)NC(=O)[C@@H]1CCCN1C(=O)[C@H](CO)NC(=O)[C@H](CO)NC(=O)[C@H](Cc1c[nH]cn1)NC(=O)[C@H](CCCNC(=N)N)NC(=O)[C@H](CC(C)C)NC(=O)[C@H](Cc1ccccc1)NC(=O)[C@H](CCC(=O)O)NC(=O)[C@H](C)NC(=O)[C@H](CC(C)C)NC(=O)[C@H](CCCNC(=N)N)NC(=O)[C@H](CCC(N)=O)NC(=O)[C@@H](NC(=O)[C@H](C)NC(=O)[C@@H]1CSSC[C@H](NC(=O)[C@@H](N)CCCCNC(=O)CC[C@H](NC(=O)CCCCCCCCCCCCCCCCCCC(=O)O)C(=O)O)C(=O)N[C@@H](CC(N)=O)C(=O)N[C@@H]([C@@H](C)O)C(=O)N[C@@H](C)C(=O)N[C@@H]([C@@H](C)O)C(=O)N1)[C@@H](C)O)C(=O)N1CCC[C@H]1C(=O)N[C@@H](CO)C(=O)N[C@@H](CO)C(=O)N[C@H](C(=O)N[C@@H](CC(N)=O)C(=O)N[C@H](C(=O)NCC(=O)N[C@@H](CO)C(=O)N[C@@H](Cc1c[nH]cn1)C(=O)N[C@H](C(=O)N[C@@H](Cc1ccc(O)cc1)C(N)=O)[C@@H](C)O)C(C)C)[C@@H](C)O
notes: as for B1
B4: N^ε1-[(4S)-4-carboxy-4-(19-carboxynonadecanoylamino)butanoyl]-[Glu14,Arg17,Pro21,Pro27,Arg34,Glu35]-h-amylin (peptide)
peptide: K([γGlu-C20 diacid])CNTATCATQRLAEFLRHSSPNFGAIPSSTNVGRETY-NH2
modifications: disulfide 2-7; N-terminus assumed
SMILES: CC[C@H](C)[C@H](NC(=O)[C@H](C)NC(=O)CNC(=O)[C@H](Cc1ccccc1)NC(=O)[C@H](CC(N)=O)NC(=O)[C@@H]1CCCN1C(=O)[C@H](CO)NC(=O)[C@H](CO)NC(=O)[C@H](Cc1c[nH]cn1)NC(=O)[C@H](CCCNC(=N)N)NC(=O)[C@H](CC(C)C)NC(=O)[C@H](Cc1ccccc1)NC(=O)[C@H](CCC(=O)O)NC(=O)[C@H](C)NC(=O)[C@H](CC(C)C)NC(=O)[C@H](CCCNC(=N)N)NC(=O)[C@H](CCC(N)=O)NC(=O)[C@@H](NC(=O)[C@H](C)NC(=O)[C@@H]1CSSC[C@H](NC(=O)[C@@H](N)CCCCNC(=O)CC[C@H](NC(=O)CCCCCCCCCCCCCCCCCCC(=O)O)C(=O)O)C(=O)N[C@@H](CC(N)=O)C(=O)N[C@@H]([C@@H](C)O)C(=O)N[C@@H](C)C(=O)N[C@@H]([C@@H](C)O)C(=O)N1)[C@@H](C)O)C(=O)N1CCC[C@H]1C(=O)N[C@@H](CO)C(=O)N[C@@H](CO)C(=O)N[C@H](C(=O)N[C@@H](CC(N)=O)C(=O)N[C@H](C(=O)NCC(=O)N[C@@H](CCCNC(=N)N)C(=O)N[C@@H](CCC(=O)O)C(=O)N[C@H](C(=O)N[C@@H](Cc1ccc(O)cc1)C(N)=O)[C@@H](C)O)C(C)C)[C@@H](C)O
notes: as for B1

What follows are binders tested against T1, rat calcitonin receptor (rat, UniProt P32214 25-516) (assay: SPA competition binding, displacement of 125I-calcitonin from membranes of BHK tk'ts 13 cells transfected with rat calcitonin receptor (Assay VIII)).
T1 construct: whole, on cells; Used as membranes prepared from the transfected cells (Assay VIII); also called rCTR; rat calcitonin (a) receptor
T1 sequence (looked up): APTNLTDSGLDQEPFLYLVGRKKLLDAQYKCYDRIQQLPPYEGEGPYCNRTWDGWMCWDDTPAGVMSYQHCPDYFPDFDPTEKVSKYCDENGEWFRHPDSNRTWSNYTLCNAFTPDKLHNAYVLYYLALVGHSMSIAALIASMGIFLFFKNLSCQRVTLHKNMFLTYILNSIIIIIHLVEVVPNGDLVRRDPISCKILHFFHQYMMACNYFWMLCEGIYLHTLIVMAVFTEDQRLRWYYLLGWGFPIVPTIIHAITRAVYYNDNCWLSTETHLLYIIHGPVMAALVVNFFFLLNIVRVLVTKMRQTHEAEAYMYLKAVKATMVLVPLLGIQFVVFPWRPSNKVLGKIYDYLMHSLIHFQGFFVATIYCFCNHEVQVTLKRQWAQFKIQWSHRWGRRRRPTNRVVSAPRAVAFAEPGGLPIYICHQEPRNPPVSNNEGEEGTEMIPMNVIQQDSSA

| Binder | IC50 |
| --- | --- |
| B1 | 58.5 nM |
| K([γGlu-C20 diacid])CNTATCATQRLAEFLRHSSPNFGAIPSSTNVGPHTY-NH2 (disulfide 2-7, not restated for each compound) | 5.43 nM |
| B2 | 9.05 nM |
| B3 | 26.3 nM |
| B4 | 86.1 nM |

Each binder was assayed against T2, rat amylin receptor (rat calcitonin receptor + rat RAMP 3) (rat, UniProt P32214 25-516; Q9JJ73 23-147) (assay: SPA competition binding, displacement of 125I-rat amylin from membranes of BHK tk'ts 13 cells transfected with rat calcitonin receptor + rat RAMP 3 (Assay VI)).
T2 construct: whole, on cells; Used as membranes prepared from the transfected cells (Assay VI); also called rAmylin-R; rat amylin 3(a) receptor
T2 sequence (looked up) 1: T1 sequence (looked up)
T2 sequence (looked up) 2: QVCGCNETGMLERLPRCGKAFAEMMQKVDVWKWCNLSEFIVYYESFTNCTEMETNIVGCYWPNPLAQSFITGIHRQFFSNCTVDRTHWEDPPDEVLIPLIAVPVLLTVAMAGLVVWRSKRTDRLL

| Binder | IC50 |
| --- | --- |
| B1 | 0.504 nM |
| K([γGlu-C20 diacid])CNTATCATQRLAEFLRHSSPNFGAIPSSTNVGPHTY-NH2 (disulfide 2-7, not restated for each compound) | 0.104 nM |
| B2 | 0.125 nM |
| B3 | 1.16 nM |
| B4 | 1.06 nM |

What follows are binders tested against T1, rat calcitonin receptor (assay: ratio of IC50 on rat calcitonin receptor (Assay VIII) to IC50 on rat amylin receptor (Assay VI)).

| Binder | Ratio rCT/rAmylin binding |
| --- | --- |
| B1 | 116 |
| K([γGlu-C20 diacid])CNTATCATQRLAEFLRHSSPNFGAIPSSTNVGPHTY-NH2 (disulfide 2-7, not restated for each compound) | 52.2 |
| B2 | 72.4 |
| B3 | 22.7 |
| B4 | 81.1 |

What follows are binders tested against T3, human calcitonin receptor (human, UniProt P30988 25-474) (assay: ratio of IC50 on human calcitonin receptor (Assay VII) to IC50 on human amylin receptor (Assay V)).
T3 construct: whole, on cells; Used as membranes prepared from the transfected cells (Assay VII); also called hCTR; hCT
T3 sequence (looked up): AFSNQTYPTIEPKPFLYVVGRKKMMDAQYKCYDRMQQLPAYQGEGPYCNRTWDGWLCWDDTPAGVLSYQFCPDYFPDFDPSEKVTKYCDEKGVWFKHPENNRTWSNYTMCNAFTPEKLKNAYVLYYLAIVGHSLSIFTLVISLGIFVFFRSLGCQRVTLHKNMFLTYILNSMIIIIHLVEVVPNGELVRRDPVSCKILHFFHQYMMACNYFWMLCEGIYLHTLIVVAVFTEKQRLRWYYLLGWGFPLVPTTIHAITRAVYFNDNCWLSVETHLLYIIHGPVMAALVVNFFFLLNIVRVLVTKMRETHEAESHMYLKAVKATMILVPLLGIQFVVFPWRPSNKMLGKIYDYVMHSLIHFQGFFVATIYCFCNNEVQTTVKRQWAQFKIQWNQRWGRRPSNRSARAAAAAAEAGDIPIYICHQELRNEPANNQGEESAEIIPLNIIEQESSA
Experimental: The resulting pellet was resuspended, homogenized and centrifuged (20.000 rpm, 15 min) in a buffer containing 20 mM Na-HEPES and 0.1 mM EDTA (pH 7.4, buffer 2). The resulting pellet was resuspended in buffer 2 and protein concentration was measured (BCA protein Assay, Pierce). The homogenate was kept cold during the whole procedure. The membranes were kept at −80° C. until use. The assay was performed in a 384 well Optiplate (PerkinElmer) in a total volume of 40 ul. Membranes were mixed with SPA beads. Final concentration of membranes 35 ng/μL final and SPA beads was 0.05 mg/well. Test-compounds were dissolved in DMSO and further diluted in assay buffer (50 mM Hepes, pH 7.4, 1 mM CaCl2, 5 mM MgCl₂, 0.1% OA and 0.02% Tween20). […] The final mixture was incubated with shaking at 400 rpm for 120 min at 25° C. prior to centrifugation (1500 rpm, 10 min). Samples were analyzed on TopCounter™ (Packard). The IC₅₀ was calculated using (one site binding competition analysis) GraphPad Prism5 as a measure of receptor affinity.
Membranes were prepared in the following way; the cells were rinsed with PBS and incubated with Versene for approximately 5 min before harvesting. The cells were flushed with PBS and the cell-suspension was centrifuged for 5 min at 1000 rpm. Cells were homogenized (Ultrathurrax) in a buffer containing 20 mM Na-HEPES and 10 mM EDTA (pH 7.4) and centrifuged at 20.000 rpm for 15 min. The resulting pellet was resuspended, homogenized and centrifuged (20.000 rpm, 15 min) in a buffer containing 20 mM Na-HEPES and 0.1 mM EDTA (pH 7.4, buffer 2). The resulting pellet was resuspended in buffer 2 and protein concentration was measured (BCA protein Assay, Pierce). The homogenate was kept cold during the whole procedure. The membranes were kept at −80° C. until use. Assay was performed in a 384 well Optiplate (PerkinElmer) in a total volume of 40 ul. Membranes were mixed with SPA beads.

| Binder | Ratio hCT/hAmylin binding |
| --- | --- |
| B1 | 151 |
| K([γGlu-C20 diacid])CNTATCATQRLAEFLRHSSPNFGAIPSSTNVGPHTY-NH2 (disulfide 2-7, not restated for each compound) | 21.2 |
| B2 | 24.8 |
| B3 | 26.4 |
| B4 | 28.5 |
